The series deals with K4 kissing-loop RNA reporter. As to the kind of experiment: apparent KD of K4 kissing-loop reporter; higher = weaker reporter binding. Conditions: Eterna round: R107. How it is done: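 RNA-MaP round R107: designed RNA switches with theophylline, tryptophan, arginine or FMN aptamers are transcribed on-chip within common flanks. They are titrated with a labelled K4 kissing-loop RNA reporter in RNA-MaP buffer (100 mM Tris pH 7.5, 80 mM KCl, 4 mM MgCl2), without ligand or with the indicated ligand. Median apparent KD per design.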

Setting [1] is: input ligand: theophylline 20 uM.
The mark [2] stands for this setting: input ligand: tryptophan 2.4 mM.
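Also: bound reporter read as fluorescence of individual clusters on recovered sequencing chips by microscopy, with normalized cluster intensities fitted with a binding model.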

Take “AAGCAGUCACUCGAAAUCAUCGAAGAUGAACGAGGACCGGUACGGCCGCCACUCGGAGUGAUGUUCCGAAGACUGCAAAAUAAAA [MatMod 1 - Jieux - Exclusion - Tryptophan A]”: the “apparent KD of K4 kissing-loop reporter” value by setting is: (input ligand: FMN 200 uM) 593 nM; (input ligand: arginine 13.2 mM) 410 nM; (input ligand: none) 475 nM; under setting [1], 477 nM; under setting [2], 106 nM.

Take “AAGUCAUAUAGAAGGAGCGUGUUUUUUAAUUUGUUUUCAUGAUCGAGUGAUGUUCGAUAUACACAGGUAGGUCGCUGUAUAAUAA [hbob_SS_Arginine_B_2t142]”: the “apparent KD of K4 kissing-loop reporter” value (input ligand: FMN 200 uM) came to 119 nM; the “apparent KD of K4 kissing-loop reporter” value (input ligand: arginine 13.2 mM) came to 141 nM; the “apparent KD of K4 kissing-loop reporter” value (input ligand: none) came out at 131 nM; the “apparent KD of K4 kissing-loop reporter” value under setting [1] was determined as 127 nM; the “apparent KD of K4 kissing-loop reporter” value under setting [2] turned out to be 106 nM.

Take “UGUCAUUGGUCGGCCGCCACUAGGACCGGGUUUUGCCUAGUGAUGUUAGUAUGAACGGCCGCCACUAGGACCGGGACCGAUGACU [KL-SSTryp-B26 #DoubleAptamer]”: the “apparent KD of K4 kissing-loop reporter” value was determined as 468 nM (input ligand: FMN 200 uM); 279 nM (input ligand: arginine 13.2 mM); 473 nM (input ligand: none); 377 nM under setting [1]; 105 nM under setting [2].

“AAACGUUGGUGCGAUACCAGCUGGUCGGAAACGACCUUGCUGGAGUGAUGUUCCAAGUAAAGCCCUUGGCAGCGCACCGACGAAA [MAT - Same State Theophlline B - Mod of Eli - D23]”: the “apparent KD of K4 kissing-loop reporter” value was found to be 122 nM (input ligand: FMN 200 uM); 53.6 nM (input ligand: arginine 13.2 mM); 43.2 nM (input ligand: none); 135 nM under setting [1]; 93.9 nM under setting [2].

Regarding “ACGUCACGUAAACUCGUGGUUUCGAUCGAUACCAGUAGCGAGAGUUACCCUUGGCAGCGACAUGAGUGAUGUUCAUGUACGAAGA [KL-XTheoA1]”, the “apparent KD of K4 kissing-loop reporter” value worked out at 101 nM (input ligand: FMN 200 uM); 89.1 nM (input ligand: arginine 13.2 mM); 97 nM (input ligand: none); 102 nM under setting [1]; 91.7 nM under setting [2].

As to “UUUUUUUACUGAAGGAGCGGCAAUUGAUACGUAGAUAUAGUGAUGUUAUAUAAGAUAGAGAGCCAGGUAGGUCGCAGAUUUUUUC [ExArgB.X]”, the “apparent KD of K4 kissing-loop reporter” value (input ligand: FMN 200 uM) stood at 194 nM; the “apparent KD of K4 kissing-loop reporter” value (input ligand: arginine 13.2 mM) is 160 nM; the “apparent KD of K4 kissing-loop reporter” value (input ligand: none) was determined as 172 nM; the “apparent KD of K4 kissing-loop reporter” value under setting [1] turned out to be 143 nM; the “apparent KD of K4 kissing-loop reporter” value under setting [2] amounted to 129 nM.

With “GGUAGCAUGGCGGCCGCCACUUAGACUGGAUCGGAAACGAUCCAGUGAAAACGAGUGAUGUUCGUAAGGACCGGGCCAUGCUACC”, the “apparent KD of K4 kissing-loop reporter” value (input ligand: FMN 200 uM) came to 386 nM; the “apparent KD of K4 kissing-loop reporter” value (input ligand: arginine 13.2 mM) is 301 nM; the “apparent KD of K4 kissing-loop reporter” value (input ligand: none) is 318 nM; the “apparent KD of K4 kissing-loop reporter” value under setting [1] was 350 nM; the “apparent KD of K4 kissing-loop reporter” value under setting [2] is 173 nM.

Regarding “AAGCCAUACUCGGCCGCCACUUACUUCGUUGCAGUGAUGUUGCACACGAAUCCGUCAUAGCAAAUAAGGACCGGGAGAUAUACCG [theeternabot_exclusion_KL_Trp_B_19]”, the “apparent KD of K4 kissing-loop reporter” value runs as follows: (input ligand: FMN 200 uM) 89.3 nM; (input ligand: arginine 13.2 mM) 89.3 nM; (input ligand: none) 95.1 nM; under setting [1], 87.5 nM; under setting [2], 86.3 nM.

Regarding “AUUUUUUACAGAAGGAGCGUGUUAUAAUAAUCAUAUUGCUUAGCGAGUGAUGUUCGCUUUACACAGGUAGGUCGCUGUUUAUUUA [JR_Nu_ExcArginiB_Sub029]”, the “apparent KD of K4 kissing-loop reporter” value reads like this: (input ligand: FMN 200 uM) 167 nM; (input ligand: arginine 13.2 mM) 168 nM; (input ligand: none) 176 nM; under setting [1], 180 nM; under setting [2], 151 nM.

Take “GCAACAUUGGGAGGAUAUCAUUCUGAGUGAUGUUCAGGGUUCAGCUAACGAAAGUUAGUUGUACCAUGAGAAGGUCUAAUGUUGC [Omei KL FMN B SS A v6]”: the “apparent KD of K4 kissing-loop reporter” value runs as follows: (input ligand: FMN 200 uM) 342 nM; (input ligand: arginine 13.2 mM) 975 nM; (input ligand: none) 1180 nM; under setting [1], 1020 nM; under setting [2], 1150 nM.

For the sequence “GCAAGGCUACAAGGAUAUGCGCGAACCUACCGCCAAGCGGCUACCGGUGAGUCAGUGAUGUUGGCUGCAGAAGGUGUGAUUGAGC [theeternabot_sameState_KL_FMN_B_45]”, the “apparent KD of K4 kissing-loop reporter” value runs as follows: (input ligand: FMN 200 uM) 383 nM; (input ligand: arginine 13.2 mM) 301 nM; (input ligand: none) 365 nM; under setting [1], 380 nM; under setting [2], 334 nM.

In the case of “CGACUAGUCUUGCAACCCUAGUCGAUAUGCUAGGAUAUCAGGAAACUGAGAAGGAGUUUACUUGCAGUGAUGUUGCAAGAAUAAU [KL-SSFMN-A10]”, the “apparent KD of K4 kissing-loop reporter” value (input ligand: FMN 200 uM) came to 135 nM; the “apparent KD of K4 kissing-loop reporter” value (input ligand: arginine 13.2 mM) worked out at 153 nM; the “apparent KD of K4 kissing-loop reporter” value (input ligand: none) turned out to be 133 nM; the “apparent KD of K4 kissing-loop reporter” value under setting [1] came to 172 nM; the “apparent KD of K4 kissing-loop reporter” value under setting [2] was 129 nM.

Consider “GCCGUACGCAUGGAUACCAGCAUGCAUAUUAGCUAGUGAUGUUAGCGCUAUGCGAUGCUAUGCCCUUGGCAGCCAUGCGUACGGC”, for which the “apparent KD of K4 kissing-loop reporter” value amounted to 124 nM (input ligand: FMN 200 uM); 108 nM (input ligand: arginine 13.2 mM); 127 nM (input ligand: none); 247 nM under setting [1]; 132 nM under setting [2].

For “AGGUUUUGAUUAGGAUAUGCACUGAGGAGGAGAAUAUAGUGAUGUUAUAUAAGAGGAAUUAGUAGAGUAGAAGGGAUUGAGGUUU [SSFMNB.T]”, the “apparent KD of K4 kissing-loop reporter” value is 248 nM (input ligand: FMN 200 uM); 167 nM (input ligand: arginine 13.2 mM); 131 nM (input ligand: none); 124 nM under setting [1]; 196 nM under setting [2].

“GACAACAGGGUGAGACUCACGGCGCCAGAAGGAGCGGUGAUUCCACCAGGUAGGUCGCUGGCCCAGUGAUGUUGGGCUUUGUGUC [Onoran]”: the “apparent KD of K4 kissing-loop reporter” value runs as follows: (input ligand: FMN 200 uM) 129 nM; (input ligand: arginine 13.2 mM) 120 nM; (input ligand: none) 138 nM; under setting [1], 133 nM; under setting [2], 123 nM.

In the case of “GGAUCCACCAGUGAUGUUGGAAAAUACUCCAAGGAUAUGACGAAAGUCAGAAGGUGGUAGACUGGACAAAGUCCAGUCGGAUCCA [FmnA 27 #SwitchBubble #K4Early]”, the “apparent KD of K4 kissing-loop reporter” value came out at 531 nM (input ligand: FMN 200 uM); 205 nM (input ligand: arginine 13.2 mM); 527 nM (input ligand: none); 537 nM under setting [1]; 504 nM under setting [2].

The record behind these values is the supplement of paper PMC9170038.
